Data published in US20240240203A1.

Molecular target: Ad5 hexon capsid protein with DogTag inserted into the HVR5 loop, on Ad5 virions (Ad5-HVR5-DogTag) (human adenovirus serotype 5 (Ad5)) (UniProt P04133)

Substance: polyhistidine-tagged recombinant DogCatcher with 18 copies of the NANP repeat sequence from the Plasmodium falciparum circumsporozoite protein fused to the C-terminus
- ligand coverage (% hexon): > 90%
